The values that follow come from the supplement of paper PMC5998384.

Series [1] has as its system HeLa Kyoto. Briefly: solubility change mitosis vs G1/S (difference of NP-40 vs SDS log2 ratios) (log2 ratio difference); higher = more soluble in mitosis.
For series [2], the system named is HeLa Kyoto. The experiment in a line: thermal stability score vs G1/S (z-score of summed log2 fold changes over temperatures); higher = more thermally stable than in G1/S.
Series [3] relates to HeLa Kyoto. The experiment in a line: solubility in G1/S (NP-40 vs SDS abundance) (log2 ratio); higher = more soluble. Particulars: cell cycle stage: G1/S.
For series [4], the system named is HeLa Kyoto. Briefly: melting temperature (median over replicates), in situ; higher = more thermally stable.
Where [5] appears, read: cell cycle stage: early G1 (4.5 h after nocodazole release).
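Throughout, for melting temperature (median over replicates), in situ: HeLa Kyoto cells synchronized by double thymidine or nocodazole block, proteins quantified by TMT10plex mass spectrometry, three independent biological replicates.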
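Throughout, for solubility change mitosis vs G1/S (difference of NP-40 vs SDS log2 ratios): synchronized HeLa Kyoto cells (double thymidine block for G1/S, nocodazole release for mitosis), protein amounts in NP-40 versus SDS lysates quantified by mass spectrometry, three biological replicates.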
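Throughout, for solubility in G1/S (NP-40 vs SDS abundance): HeLa Kyoto cells arrested at G1/S by double thymidine block, proteins quantified by TMT10plex mass spectrometry in mild NP-40 versus SDS extracts, three biological replicates.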
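Throughout, for thermal stability score vs G1/S (z-score of summed log2 fold changes over temperatures): synchronized HeLa Kyoto cells, proteins quantified by TMT10plex mass spectrometry, three biological replicates, mitosis taken 0.5 h after nocodazole release, G1/S directly after double thymidine block.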

In the case of “MGRESRHYRKRSASRGRSGSRSRSRSPSDKRSKRGDDRRSRSRDRDRRRERSRSRDKRRSRSRDRKRLRRSRSRERDRSRERRRSRSRDRRRSRSRSRGRRSRSSSPGNKSKKTENRSRSKEKTDGGESSKEKKKDKDDKEDEKEKDAGNFDQNKLEEEMRKRKERVEKWREEQRKKAMENIGELKKEIEEMKQGKKWSLEDDDDDEDDPAEAEKEGNEMEGEELDPLDAYMEEVKEEVKKFNMRSVKGGGGNEKKSGPTVTKVVTVVTTKKAVVDSDKKKGELMENDQDAMEYSSEEEEVDLQTALTGYQTKQRKLLEPVDHGKIEYEPFRKNFYVEVPELAKMSQEEVNVFRLEMEGITVKGKGCPKPIKSWVQCGISMKILNSLKKHGYEKPTPIQTQAIPAIMSGRDLIGIAKTGSGKTIAFLLPMFRHIMDQRSLEEGEGPIAVIMTPTRELALQITKECKKFSKTLGLRVVCVYGGTGISEQIAELKRGAEIIVCTPGRMIDMLAANSGRVTNLRRVTYVVLDEADRMFDMGFEPQVMRIVDNVRPDRQTVMFSATFPRAMEALARRILSKPIEVQVGGRSVVCSDVEQQVIVIEEEKKFLKLLELLGHYQESGSVIIFVDKQEHADGLLKDLMRASYPCMSLHGGIDQYDRDSIINDFKNGTCKLLVATSVAARGLDVKHLILVVNYSCPNHYEDYVHRAGRTGRAGNKGYAYTFITEDQARYAGDIIKALELSGTAVPPDLEKLWSDFKDQQKAEGKIIKKSSGFSGKGFKFDETEQALANERKKLQKAALGLQDSDDEDAAVDIDEQIESMFNSKKRVKDMAAPGTSSVPAPTAGNAEKLEIAKRLALRINAQKNLGIESQDVMQQATNAILRGGTILAPTVSAKTIAEQLAEKINAKLNYVPLEKQEEERQDGGQNESFKRYEEELEINDFPQTARWKVTSKEALQRISEYSEAAITIRGTYFPPGKEPKEGERKIYLAIESANELAVQKAKAEITRLIKEELIRLQNSYQPTNKGRYKVL [DDX46]”, in series [1], the “solubility change mitosis (log2)” value was -0.00451. Also, the thermal stability score in series [2] (setting [5]) amounted to 3.63; in series [2] (cell cycle stage: mitosis) it was 9.43. Further, the “solubility in G1/S (log2)” value in series [3] was -0.607. The values for the melting temperature in series [4] (cell cycle stage: G1/S) and in series [4] (cell cycle stage: mitosis) were 47.7 °C and 49.2 °C, respectively.
As to “MGRIFLDHIGGTRLFSCANCDTILTNRSELISTRFTGATGRAFLFNKVVNLQYSEVQDRVMLTGRHMVRDVSCKNCNSKLGWIYEFATEDSQRYKEGRVILERALVRESEGFEEHVPSDNS [YPEL5]”, the “solubility change mitosis (log2)” value in series [1] was -0.00616. Moreover, the thermal stability score in series [2] (setting [5]) is 0.121; in series [2] (cell cycle stage: mitosis), -0.0508. The “solubility in G1/S (log2)” value in series [3] was found to be 0.00475. Moreover, the melting temperature in series [4] (cell cycle stage: G1/S) was 50.7 °C; in series [4] (cell cycle stage: mitosis) it was 52.5 °C.
With “MGRSGKLPSGVSAKLKRWKKGHSSDSNPAICRHRQAARSRFFSRPSGRSDLTVDAVKLHNELQSGSLRLGKSEAPETPMEEEAELVLTEKSSGTFLSGLSDCTNVTFSKVQRFWESNSAAHKEICAVLAAVTEVIRSQGGKETETEYFAALMTTMEAVESPESLAAVAYLLNLVLKRVPSPVLIKKFSDTSKAFMDIMSAQASSGSTSVLRWVLSCLATLLRKQDLEAWGYPVTLQVYHGLLSFTVHPKPKIRKAAQHGVCSVLKGSEFMFEKAPAHHPAAISTAKFCIQEIEKSGGSKEATTTLHMLTLLKDLLPCFPEGLVKSCSETLLRVMTLSHVLVTACAMQAFHSLFHARPGLSTLSAELNAQIITALYDYVPSENDLQPLLAWLKVMEKAHINLVRLQWDLGLGHLPRFFGTAVTCLLSPHSQVLTAATQSLKEILKECVAPHMADIGSVTSSASGPAQSVAKMFRAVEEGLTYKFHAAWSSVLQLLCVFFEACGRQAHPVMRKCLQSLCDLRLSPHFPHTAALDQAVGAAVTSMGPEVVLQAVPLEIDGSEETLDFPRSWLLPVIRDHVQETRLGFFTTYFLPLANTLKSKAMDLAQAGSTVESKIYDTLQWQMWTLLPGFCTRPTDVAISFKGLARTLGMAISERPDLRVTVCQALRTLITKGCQAEADRAEVSRFAKNFLPILFNLYGQPVAAGDTPAPRRAVLETIRTYLTITDTQLVNSLLEKASEKVLDPASSDFTRLSVLDLVVALAPCADEAAISKLYSTIRPYLESKAHGVQKKAYRVLEEVCASPQGPGALFVQSHLEDLKKTLLDSLRSTSSPAKRPRLKCLLHIVRKLSAEHKEFITALIPEVILCTKEVSVGARKNAFALLVEMGHAFLRFGSNQEEALQCYLVLIYPGLVGAVTMVSCSILALTHLLFEFKGLMGTSTVEQLLENVCLLLASRTRDVVKSALGFIKVAVTVMDVAHLAKHVQLVMEAIGKLSDDMRRHFRMKLRNLFTKFIRKFGFELVKRLLPEEYHRVLVNIRKAEARAKRHRALSQAAVEEEEEEEEEEEPAQGKGDSIEEILADSEDEEDNEEEERSRGKEQRKLARQRSRAWLKEGGGDEPLNFLDPKVAQRVLATQPGPGRGRKKDHGFKVSADGRLIIREEADGNKMEEEEGAKGEDEEMADPMEDVIIRNKKHQKLKHQKEAEEEELEIPPQYQAGGSGIHRPVAKKAMPGAEYKAKKAKGDVKKKGRPDPYAYIPLNRSKLNRRKKMKLQGQFKGLVKAARRGSQVGHKNRRKDRRP [RRP12]”, the “solubility change mitosis (log2)” value in series [1] stood at 0.248. Besides, the thermal stability score in series [2] (setting [5]) was determined as 3.24; in series [2] (cell cycle stage: mitosis) it was 7.79. Besides, the “solubility in G1/S (log2)” value in series [3] was -0.758. In addition, the melting temperature in series [4] (cell cycle stage: G1/S) amounted to 46.3 °C; in series [4] (cell cycle stage: mitosis), 49 °C.
In the case of “MGRVQLFEISLSHGRVVYSPGEPLAGTVRVRLGAPLPFRAIRVTCIGSCGVSNKANDTAWVVEEGYFNSSLSLADKGSLPAGEHSFPFQFLLPATAPTSFEGPFGKIVHQVRAAIHTPRFSKDHKCSLVFYILSPLNLNSIPDIEQPNVASATKKFSYKLVKTGSVVLTASTDLRGYVVGQALQLHADVENQSGKDTSPVVASLLQKVSYKAKRWIHDVRTIAEVEGAGVKAWRRAQWHEQILVPALPQSALPGCSLIHIDYYLQVSLKAPEATVTLPVFIGNIAVNHAPVSPRPGLGLPPGAPPLVVPSAPPQEEAEAEAAAGGPHFLDPVFLSTKSHSQRQPLLATLSSVPGAPEPCPQDGSPASHPLHPPLCISTGATVPYFAEGSGGPVPTTSTLILPPEYSSWGYPYEAPPSYEQSCGGVEPSLTPES [ARRDC1]”, the “solubility change mitosis (log2)” value in series [1] is -0.0855. Further, the thermal stability score in series [2] (setting [5]) is -1.09; in series [2] (cell cycle stage: mitosis), -1.63. Also, the “solubility in G1/S (log2)” value in series [3] was 0.131. Besides, the melting temperature in series [4] (cell cycle stage: G1/S) was 53.2 °C; in series [4] (cell cycle stage: mitosis), 52.1 °C.
